Laboratory results reported in paper PMC3154745.
Each block holds one binder with its values, some of them ahead of it.

Columns and labels:
[1] = biological target: PIWI peptide with HP2 pentamer, N-terminal fluorescein (D. melanogaster); test: fluorescence polarisation
[2] = biological target: HP2 peptide with PIWI pentamer, N-terminal fluorescein (D. melanogaster); test: fluorescence polarisation
[3] = biological target: T1, Full length HP1a, pET11a construct (AUC) (D. melanogaster), P05205; test: AUC; settings: remark: other sources report otherwise
T1 chain: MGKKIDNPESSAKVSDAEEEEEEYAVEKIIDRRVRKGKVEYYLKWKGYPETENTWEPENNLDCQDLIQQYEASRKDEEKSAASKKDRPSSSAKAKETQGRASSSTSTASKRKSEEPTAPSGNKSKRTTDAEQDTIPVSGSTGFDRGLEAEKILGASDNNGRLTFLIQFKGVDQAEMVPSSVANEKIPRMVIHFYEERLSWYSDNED

Kd [1]: 21.3 µM
Kd [2]: 0.99 µM
B1: HP1a-CSD (residues 131-206), wild type (domain or fragment)
chain: EQDTIPVSGSTGFDRGLEAEKILGASDNNGRLTFLIQFKGVDQAEMVPSSVANEKIPRMVIHFYEERLSWYSDNED

Kd [3]: 1.4 µM
B2: Full length HP1a, pET11a construct (AUC), P05205 1-206 (natural protein)
chain: T1 chain
